This assay concerns the target T1, biotinylated CD59 (Homo sapiens, UniProt P13987).
T1 construct: Recombinant soluble human CD59 with an additional C-terminal cysteine residue
T1 sequence (P13987 26-102 limits assumed): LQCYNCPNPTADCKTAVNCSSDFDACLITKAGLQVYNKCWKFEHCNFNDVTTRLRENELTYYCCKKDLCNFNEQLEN
As to the kind of experiment: mRNA-display cyclic peptide screen against CD59-biotin, NGS abundance after 6th selection round. The settings on record: for Percentage Seq I: counts normalised by total counts of sample Seq I; for Percentage Seq I / Percentage Seq II: percentage of the pool; for Percentage Seq I / Percentage Seq II / Percentage Average / Percentage of the pool, averaged across the two sequencing samples / Percentage of the pool, Seq I / Percentage of the pool, Seq II: sheet R6; for Percentage Seq II: counts normalised by total counts of sample Seq II; for Percentage Average: percentage of the pool averaged across the two sequencing samples; for Counts Seq I / Counts Seq II: raw NGS counts of peptide sequence; for Counts Seq I: sequencing sample Seq I; for Counts Seq I / Counts Seq II / Counts (raw counts for peptide sequence), Seq I / Counts (raw counts for peptide sequence), Seq II: sheet R6 (6th selection round); for Counts Seq II: sequencing sample Seq II; for Counts (raw counts for peptide sequence), Seq I: NGS sample Seq I; for Counts (raw counts for peptide sequence), Seq II: NGS sample Seq II; for Percentage of the pool, averaged across the two sequencing samples: average of Seq I and Seq II; for Percentage of the pool, Seq I: counts normalised by total counts of NGS sample Seq I; for Percentage of the pool, Seq II: counts normalised by total counts of NGS sample Seq II. The essentials:
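Peptide–mRNA fusions were made by in vitro translation with a customised PURE express kit. The kit lacked release factor 1 and methionine and was supplemented with […] initiator tRNA carrying N-chloroacetyl-d-tyrosine. Thioether macrocycles were formed, then enriched and amplified over iterative rounds on CD59-biotin immobilised on streptavidin beads. NGS read counts per sequence were recorded after the 6th selection round.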

As to FVTGSRDHTRG, the “Percentage Seq I” value is on record as 0.074%, the “Percentage Seq II” value stood at 0.053%, the “Percentage Average” value was determined as 0.063% and the “Counts Seq I” value turned out to be 322. For the same sequence, the “Counts Seq II” value is 23.
On the same counts, the results for CFSKRIAPGAQ are 0.020%, 0.019%, 0.019%, 88 and 8.
On the same counts, the results for HVFGNRSFTSG are 0.017%, 0.021%, 0.019%, 73 and 9.
As to FVTGNRDHTRE, the “Counts (raw counts for peptide sequence), Seq I” value was 33; the “Counts (raw counts for peptide sequence), Seq II” value is 7; the “Percentage of the pool, averaged across the two sequencing samples” value is listed as 0.012%; the “Percentage of the pool, Seq I” value is on record as 0.00754%. Also, the “Percentage of the pool, Seq II” value is given as 0.016%.
As to ISWGNGSLAFY, the “Percentage Seq I” value was found to be 0.147%, the “Percentage Seq II” value was determined as 0.116%, the “Percentage Average” value is on record as 0.132% and the “Counts Seq I” value is given as 643. The “Counts Seq II” value was determined as 50.
WAKGSDTFTSG: the “Counts (raw counts for peptide sequence), Seq I” value is 141; the “Counts (raw counts for peptide sequence), Seq II” value was found to be 1; the “Percentage of the pool, averaged across the two sequencing samples” value was found to be 0.017%; the “Percentage of the pool, Seq I” value was determined as 0.032%. For the same sequence, the “Percentage of the pool, Seq II” value is recorded as 0.00232%.
Regarding VAHGSKNSQFW, the “Percentage Seq I” value was determined as 0.349%, the “Percentage Seq II” value was 0.325%, the “Percentage Average” value is 0.337% and the “Counts Seq I” value is on record as 1526. For the same sequence, the “Counts Seq II” value was found to be 140.
In the case of SSWAQLPCKR, the “Percentage Seq I” value was found to be 0.039%, the “Percentage Seq II” value is 0.030%, the “Percentage Average” value is listed as 0.035% and the “Counts Seq I” value worked out at 170. For the same sequence, the “Counts Seq II” value is recorded as 13.
The matching figures for CFSQRLDRTSS: 0.027%, 0.026%, 0.026%, 116 and 11.
Consider FVRGNRYSVLG, for which the “Counts (raw counts for peptide sequence), Seq I” value came out at 64; the “Counts (raw counts for peptide sequence), Seq II” value came out at 5; the “Percentage of the pool, averaged across the two sequencing samples” value is listed as 0.013%; the “Percentage of the pool, Seq I” value is listed as 0.015%. For the same sequence, the “Percentage of the pool, Seq II” value was 0.012%.
On to QWNRWYGMDER, for which the “Percentage Seq I” value was found to be 0.084%, the “Percentage Seq II” value turned out to be 0.097%, the “Percentage Average” value worked out at 0.091% and the “Counts Seq I” value is listed as 369. The “Counts Seq II” value amounted to 42.
Consider FARGDLYSVLG, for which the “Counts (raw counts for peptide sequence), Seq I” value is 71; the “Counts (raw counts for peptide sequence), Seq II” value was determined as 5; the “Percentage of the pool, averaged across the two sequencing samples” value was found to be 0.014%; the “Percentage of the pool, Seq I” value stood at 0.016%. Also, the “Percentage of the pool, Seq II” value amounted to 0.012%.
The matching figures for ISGGRNWRAG: 65, 6, 0.014%, 0.015% and 0.014%.
In the case of HAFGSRDITYY, the “Percentage Seq I” value was 0.246%, the “Percentage Seq II” value turned out to be 0.272%, the “Percentage Average” value was determined as 0.259% and the “Counts Seq I” value is listed as 1078. Further, the “Counts Seq II” value is reported as 117.
Consider FVRGDQYSVLG, for which the “Percentage Seq I” value is 0.056%, the “Percentage Seq II” value is 0.081%, the “Percentage Average” value is on record as 0.069% and the “Counts Seq I” value is listed as 247. Besides, the “Counts Seq II” value is listed as 35.

Values taken from publication PMC12207370, “Macrocyclic Peptide Probes for Immunomodulatory Protein CD59: Potent Modulators of Bacterial Toxin Activity and Antibody‐Dependent Cytotoxicity” (Angewandte Chemie (International Ed. in English), 2025).
